Measured values taken from the supplement of paper PMC11246515.
± gives the standard deviation of the averaged measurements.

Assay: total protein half-life in vivo (active degradation + dilution); higher = more stable protein
[1] = E. coli NCM3722 delta-clpP delta-lon delta-hslV, growth: N-lim chemostat, doubling time 6 h
[2] = E. coli NCM3722 delta-clpP, growth: N-lim chemostat, doubling time 6 h
[3] = E. coli NCM3722 delta-hslV, growth: N-lim chemostat, doubling time 6 h
[4] = E. coli NCM3722 delta-lon, growth: N-lim chemostat, doubling time 6 h
[5] = E. coli NCM3722 delta-smpB, growth: N-lim chemostat, doubling time 6 h
[6] = wild type E. coli NCM3722, growth: C-lim chemostat, doubling time 3 h
[7] = wild type E. coli NCM3722, growth: C-lim chemostat, doubling time 6 h
[8] = wild type E. coli NCM3722, growth: C-lim chemostat, doubling time 12 h
[9] = wild type E. coli NCM3722, growth: N-lim chemostat, doubling time 6 h
[10] = wild type E. coli NCM3722, growth: N-lim chemostat, doubling time 12 h
[11] = wild type E. coli NCM3722, growth: P-lim chemostat, doubling time 6 h
[12] = wild type E. coli NCM3722, growth: P-lim chemostat, doubling time 12 h

Row | Sequence | total protein half-life in vivo [1] [h] | total protein half-life in vivo [2] [h] | total protein half-life in vivo [3] [h] | total protein half-life in vivo [4] [h] | total protein half-life in vivo [5] [h] | total protein half-life in vivo [6] [h] | total protein half-life in vivo [7] [h] | total protein half-life in vivo [8] [h] | total protein half-life in vivo [9] [h] | total protein half-life in vivo [10] [h] | total protein half-life in vivo [11] [h] | total protein half-life in vivo [12] [h]
1 | MIEFKNVSKHFGPTQVLHNIDLNIAQGEVVVIIGPSGSGKSTLLRCINKLEEITSGDLIVDGLKVNDPKVDERLIRQEAGMVFQQFYLFPHLTALENVMFGPLRVRGANKEEAEKLARELLAKVGLAERAHHYPSELSGGQQQRVAIARALAVKPKMMLFDEPTSALDPELRHEVLKVMQDLAEEGMTMVIVTHEIGFAEKVASRLIFIDKGRIAEDGNPQVLIKNPPSQRLQEFLQHVS | 6.81 ± 0.9 | 5.7293 ± 0.0055 | 5.292 ± 0.039 | 5.12 ± 0.18 | 5.72 ± 0.6 | 2.93 ± 0.62 | 4.88 ± 1.6 | 11.9 ± 0.78 | 6.79 | 11.5 ± 0.64 | 5.25 | 12.5 ± 0.99
2 | MKLIRGIHNLSQAPQEGCVLTIGNFDGVHRGHRALLQGLQEEGRKRNLPVMVMLFEPQPLELFATDKAPARLTRLREKLRYLAECGVDYVLCVRFDRRFAALTAQNFISDLLVKHLRVKFLAVGDDFRFGAGREGDFLLLQKAGMEYGFDITSTQTFCEGGVRISSTAVRQALADDNLALAESLLGHPFAISGRVVHGDELGRTIGFPTANVPLRRQVSPVKGVYAVEVLGLGEKPLPGVANIGTRPTVAGIRQQLEVHLLDVAMDLYGRHIQVVLRKKIRNEQRFASLDELKAQIARDELTAREFFGLTKPA [P0AG40] | 4.18 ± 0.72 | 5.21 ± 0.77 | 4.54 ± 0.2 | 5.2 ± 0.77 | 4.43 ± 0.14 | 3.15 ± 0.15 | 5.64 ± 0.3 | 10.5 ± 0.48 | 4.62 ± 0.35 | 7.426 ± 0.064 | 5.441 ± 0.05 | 11.83 ± 0.032
3 | MENIMNNPVIGVVMCRNRLKGHATQTLQEKYLNAIIHAGGLPIALPHALAEPSLLEQLLPKLDGIYLPGSPSNVQPHLYGENGDEPDADPGRDLLSMAIINAALERRIPIFAICRGLQELVVATGGSLHRKLCEQPELLEHREDPELPVEQQYAPSHEVQVEEGGLLSALLPECSNFWVNSLHGQGAKVVSPRLRVEARSPDGLVEAVSVINHPFALGVQWHPEWNSSEYALSRILFEGFITACQHHIAEKQRL | – | 2.93 | – | – | – | 2.64 | – | 10.5 | – | – | – | 10.6 ± 0.45
4 | MTDNTYQPAKVWTWDKSAGGAFANINRPVSGPTHEKTLPVGKHPLQLYSLGTPNGQKVTIMLEELLALGVTGAEYDAWLIRIGDGDQFSSGFVEVNPNSKIPALRDHTHNPPIRVFESGSILLYLAEKFGYFLPQDLAKRTETMNWLFWLQGAAPFLGGGFGHFYHYAPVKIEYAINRFTMEAKRLLDVLDKQLAQHKFVAGDEYTIADMAIWPWFGNVVLGGVYDAAEFLDAGSYKHVQRWAKEVGERPAVKRGRIVNRTNGPLNEQLHERHDASDFETNTEDKRQG | 5.11 ± 0.38 | 5.1 ± 0.095 | 4.77 ± 0.093 | 5.02 ± 0.099 | 4.78 ± 0.57 | 3.18 ± 0.21 | 5.63 ± 0.16 | 9.78 ± 2.2 | 5.31 ± 0.2 | 9.72 ± 3.6 | 5.6 ± 0.21 | 11.8 ± 0.8
5 | MESNNGEAKIQKVKNWSPVWIFPIVTALIGAWVLFYHYSHQGPEVTLITANAEGIEGGKTTIKSRSVDVGVVESATLADDLTHVEIKARLNSGMEKLLHKDTVFWVVKPQIGREGISGLGTLLSGVYIELQPGAKGSKMDKYDLLDSPPLAPPDAKGIRVILDSKKAGQLSPGDPVLFRGYRVGSVETSTFDTQKRNISYQLFINAPYDRLVTNNVRFWKDSGIAVDLTSAGMRVEMGSLTTLLSGGVSFDVPEGLDLGQPVAPKTAFVLYDDQKSIQDSLYTDHIDYLMFFKDSVRGLQPGAPVEFRGIRLGTVSKVPFFAPNMRQTFNDDYRIPVLIRIEPERLKMQLGENADVVEHLGELLKRGLRGSLKTGNLVTGALYVDLDFYPNTPAITGIREFNGYQIIPTVSGGLAQIQQRLMEALDKINKLPLNPMIEQATSTLSESQRTMKNLQTTLDSMNKILASQSMQQLPTDMQSTLRELNRSMQGFQPGSAAYNKMVADMQRLDQVLRELQPVLKTLNEKSNALVFEAKDKKDPEPKRAKQ | 6.4 ± 0.49 | 7 ± 0.91 | – | 6.43 ± 0.21 | 5.75 ± 0.35 | 3.341 ± 0.027 | 7.13 ± 0.87 | 12.8 ± 1.1 | 5.99 ± 0.28 | 12.9 ± 0.71 | 6.06 ± 0.058 | –
6 | MKKFAAVIAVMALCSAPVMAAEQGGFSGPSATQSQAGGFQGPNGSVTTVESAKSLRDDTWVTLRGNIVERISDDLYVFKDASGTINVDIDHKRWNGVTVTPKDTVEIQGEVDKDWNSVEIDVKQIRKVNP [P0ADU5] | 3.85 ± 0.19 | 5.07 ± 0.71 | 5.86 ± 0.11 | 6.2 ± 0.35 | 5.91 ± 0.28 | 2.89 ± 0.69 | 5.83 ± 0.75 | 6.74 ± 1.2 | 6.22 ± 0.79 | 11.8 ± 0.34 | 4.72 ± 0.64 | 7.98 ± 1.5
7 | MKFVSFNINGLRARPHQLEAIVEKHQPDVIGLQETKVHDDMFPLEEVAKLGYNVFYHGQKGHYGVALLTKETPIAVRRGFPGDDEEAQRRIIMAEIPSLLGNVTVINGYFPQGESRDHPIKFPAKAQFYQNLQNYLETELKRDNPVLIMGDMNISPTDLDIGIGEENRKRWLRTGKCSFLPEEREWMDRLMSWGLVDTFRHANPQTADRFSWFDYRSKGFDDNRGLRIDLLLASQPLAECCVETGIDYEIRSMEKPSDHAPVWATFRR | 5.619 ± 0.036 | 5.58 ± 0.29 | 5.75 ± 0.011 | 6.04 ± 1.2 | 5.27 ± 0.3 | 3.14 ± 0.45 | 5.863 ± 0.013 | 10.9 ± 0.79 | 5.46 ± 0.4 | 10.8 ± 0.2 | 5.61 ± 0.2 | 11.9 ± 1.3
